Like-named read-outs stand apart in the source and are kept apart here. Where no end group is shown, it is not given here.
B1: Recombinant human integrin αvβ6 (complex)
chain 1: FNLDVDSPAEYSGPEGSYFGFAVDFFVPSASSRMFLLVGAPKANTTQPGIVEGGQVLKCDWSSTRRCQPIEFDATGNRDYAKDDPLEFKSHQWFGASVRSKQDKILACAPLYHWRTEMKQEREPVGTCFLQDGTKTVEYAPCRSQDIDADGQGFCQGGFSIDFTKADRVLLGGPGSFYWQGQLISDQVAEIVSKYDPNVYSIKYNNQLATRTAQAIFDDSYLGYSVAVGDFNGDGIDDFVSGVPRAARTLGMVYIYDGKNMSSLYNFTGEQMAAYFGFSVAATDINGDDYADVFIGAPLFMDRGSDGKLQEVGQVSVSLQRASGDFQTTKLNGFEVFARFGSAIAPLGDLDQDGFNDIAIAAPYGGEDKKGIVYIFNGRSTGLNAVPSQILEGQWAARSMPPSFGYSMKGATDIDKNGYPDLIVGAFGVDRAILYRARPVITVNAGLEVYPSILNQDNKTCSLPGTALKVSCFNVRFCLKADGKGVLPRKLNFQVELLLDKLKQKGAIRRALFLYSRSPSHSKNMTISRGGLMQCEELIAYLRDESEFRDKLTPITIFMEYRLDYRTAADTTGLQPILNQFTPANISRQAHILLDCGEDNVCKPKLEVSVDSDQKKIYIGDDNPLTLIVKAQNQGEGAYEAELIVSIPLQADFIGVVRNNEALARLSCAFKTENQTRQVVCDLGNPMKAGTQLLAGLRFSVHQQSEMDTSVKFDLQIQSSNLFDKVSPVVSHKVDLAVLAAVEIRGVSSPDHVFLPIPNWEHKENPETEEDVGPVVQHIYELRNNGPSSFSKAMLHLQWPYKYNNNTLLYILHYDIDGPMNCTSDMEINPLRIKISSLQTTEKNDTVAGQGERDHLITKRDLALSEGDIHTLGCGVAQCLKIVCQVGRLDRGKSAILYVKSLLWTETFMNKENQNHSYSLKSSASFNVIEFPYKNLPIEDITNSTLVTTNVTWGIQPAPMPV
chain 2: GCALGGAETCEDCLLIGPQCAWCAQENFTHPSGVGERCDTPANLLAKGCQLNFIENPVSQVEILKNKPLSVGRQKNSSDIVQIAPQSLILKLRPGGAQTLQVHVRQTEDYPVDLYYLMDLSASMDDDLNTIKELGSRLSKEMSKLTSNFRLGFGSFVEKPVSPFVKTTPEEIANPCSSIPYFCLPTFGFKHILPLTNDAERFNEIVKNQKISANIDTPEGGFDAIMQAAVCKEKIGWRNDSLHLLVFVSDADSHFGMDSKLAGIVIPNDGLCHLDSKNEYSMSTVLEYPTIGQLIDKLVQNNVLLIFAVTQEQVHLYENYAKLIPGATVGLLQKDSGNILQLIISAYEELRSEVELEVLGDTEGLNLSFTAICNNGTLFQHQKKCSHMKVGDTASFSVTVNIPHCERRSRHIIIKPVGLGDALELLVSPECNCDCQKEVEVNSSKCHHGNGSFQCGVCACHPGHMGPRCECGEDMLSTDSCKEAPDHPSCSGRGDCYCGQCICHLSPYGNIYGPYCQCDNFSCVRHKGLLCGGNGDCDCGECVCRSGWTGEYCNCTTSTDSCVSEDGVLCSGRGDCVCGKCVCTNPGASGPTCERCPTCGDPCNSKRSCIECHLSAAGQAREECVDKCKLAGATISEEEDFSKDGSVSCSLQGENECLITFLITTDNEGKTIIHSINEKDCPKPPNIP

Tests used:
[1] = target: B1; test: FACS; competition with yeast-displayed R01-MG
R01-MW = test: FACS
[2] = target: B1; test: FACS; competition with yeast-displayed R01-MG

| IC50 [1] | Binder | further results |
| --- | --- | --- |
| 0.469 nM | {(19F)fluoropropyl}-GCILNGRTDLGTLLFRCRRDSDCPGACICRGNGYCG (designed binder, disulfide (positions not given here); not fully specified (C-terminus)) [[^19F]FP-R01-MG-F2] | – |
| 0.383 nM | GCILNGRTDLGTLLFRCRRDSDCPGACICRGNGYCG-NH2 (designed binder, disulfide (positions not given here)) [R01-MG synthetic cystine knot peptide (unlabeled precursor)] | – |
| – | B1 | Kd (R01-MW): 1.69 nM |
| – | {2‑(19F)fluoropropionyl}-GCILNGRTDLGTLLFRCRRDSDCPGACICRGNGYCG-NH2 (disulfide (positions not given here); not fully specified (bridges)) [[19F]FP-R01-MG-F1] | IC50 [2]: 0.541 nM |

— PMC6791878 (2019)
